Changes are numbered by the printed parent chain. Each block holds one binder with its values, some of them ahead of it.
What was measured:
[1] = target: human CLDN18.2 (hCLDN18.2), expressed on cells (human); assay: cell-based or functional assay
[2] = target: T1, human CLDN18.2 (hCLDN18.2), expressed on cells (human); assay: FACS, MFC cells over-expressing hCLDN18.2
T1 construct: the constructs in the cell lines are not described; also called Claudin18.2; HEK293-hCLDN18.2

[3] = target: T1, human CLDN18.2 (hCLDN18.2), expressed …; assay: FACS, SNU620 cells over-expressing hCLDN18.2
[4] = target: T1, human CLDN18.2 (hCLDN18.2), expressed …; assay: cell-based or functional assay; remark: listed apart in the source

ADCC EC50 (nM), NK-CD16a effector cells [1]: 0.00765 nM
B1: hu22E12.H1L2-ADE (antibody, human IgG1)
heavy: QVQLVQSGAEVKKPGASVKVSCKASGYTFTNWVHWVRQAPGQGLEWMGEINPTNARSNYNEKFKKRVTMTRDTSTSTVYMELSSLRSEDTAVYYCARIYYGNSFAHWGQGTLVTVSSASTKGPSVFPLAPSSKSTSGGTAALGCLVKDYFPEPVTVSWNSGALTSGVHTFPAVLQSSGLYSLSSVVTVPSSSLGTQTYICNVNHKPSNTKVDKKVEPKSCDKTHTCPPCPAPELLAGPDVFLFPPKPKDTLMISRTPEVTCVVVDVSHEDPEVKFNWYVDGVEVHNAKTKPREEQYNSTYRVVSVLTVLHQDWLNGKEYKCKVSNKALPAPEEKTISKAKGQPREPQVYTLPPSREEMTKNQVSLTCLVKGFYPSDIAVEWESNGQPENNYKTTPPVLDSDGSFFLYSKLTVDKSRWQQGNVFSCSVMHEALHNHYTQKSLSLSPGK
VL: DIVMTQSPDSLAVSLGERATINCKSSQSLLNAGNQKNYLTWYQQKPGQPPKLLIYWSSTRESGVPDRFSGSGSGTDFTLTISSLQAEDVAVYHCQNNYYYPLTFGGGTKLEIK

EC50 [2]: 0.586 nM
B2: hu22E12.H2L2 (antibody, V domains shown)
VH: QVQLVQSGAEVKKPGASVKVSCKASGYTFTNWVHWVRQAPGQGLEWMGEINPTNARSNYNEKFKKRVTMTRDRSTSTVYMELSSLRSEDTAVYFCAGIYYGNSFAHWGQGTLVTVSS
VL: B1 VL
notes: humanized 22E12

ADCC EC50 (nM), NK-CD16a effector cells [1]: 0.00997 nM
B3: hu22E12.H1L2-VLPLL (antibody, human IgG1)
heavy: B1 heavy with L235V, A236G, D239S, F243L, R292P, Y300L, E332I, P396L
VL: B1 VL

ADCC EC50 (nM), NK-CD16a effector cells [1]: 0.00637 nM
B4: hu22E12.H1L2-DE (antibody, human IgG1)
heavy: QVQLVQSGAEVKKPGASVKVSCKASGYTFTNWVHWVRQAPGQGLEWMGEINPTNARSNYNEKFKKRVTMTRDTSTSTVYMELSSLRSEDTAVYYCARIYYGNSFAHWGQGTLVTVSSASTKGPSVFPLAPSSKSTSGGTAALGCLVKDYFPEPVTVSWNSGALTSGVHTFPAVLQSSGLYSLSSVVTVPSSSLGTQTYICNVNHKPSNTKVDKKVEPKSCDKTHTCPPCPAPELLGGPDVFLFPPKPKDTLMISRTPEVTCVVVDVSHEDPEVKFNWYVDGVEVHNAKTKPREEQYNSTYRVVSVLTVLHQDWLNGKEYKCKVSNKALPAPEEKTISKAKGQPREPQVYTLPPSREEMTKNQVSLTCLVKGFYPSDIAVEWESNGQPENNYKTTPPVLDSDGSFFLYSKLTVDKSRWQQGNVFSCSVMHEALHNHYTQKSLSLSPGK
VL: B1 VL

ADCC EC50 (nM), NK-CD16a effector cells [1]: 0.00503 nM
B5: hu22E12.H1L2-DLE (antibody, human IgG1)
heavy: B1 heavy with A236G, A330L
VL: B1 VL

EC50 [2]: 0.656 nM
B6: hu22E12.H2L1 (antibody, V domains shown)
VH: B2 VH
VL: B1 VL with H93Y
notes: humanized 22E12

EC50 [2]: 1.05 nM
B7: hu22E12.H4L2 (antibody, V domains shown)
VH: B2 VH with K12V, V20L, R37I, M47I, M69L, R71L
VL: B1 VL
notes: humanized 22E12

EC50 [2]: 1.31 nM
B8: hu22E12.H1L1 (antibody, V domains shown)
VH: B2 VH with R73T, F94Y, G97R
VL: B1 VL with H93Y
notes: humanized 22E12

EC50 [2]: 0.642 nM
B9: hu22E12.H2L3 (antibody, V domains shown)
VH: B2 VH
VL: B1 VL with A19V, I21L, L84V
notes: humanized 22E12

EC50 [2]: 1.19 nM
B10: hu22E12.H3L3 (antibody, V domains shown)
VH: B2 VH with K12V, R37I, R71L
VL: B1 VL with A19V, I21L, L84V
notes: humanized 22E12

EC50 [2]: 1.08 nM
B11: hu22E12.H1L3 (antibody, V domains shown)
VH: B2 VH with R73T, F94Y, G97R
VL: B1 VL with A19V, I21L, L84V
notes: humanized 22E12

EC50 [2]: 1.23 nM
B12: hu22E12.H3L1 (antibody, V domains shown)
VH: B2 VH with K12V, R37I, R71L
VL: B1 VL with H93Y
notes: humanized 22E12

EC50 [2]: 2 nM
B13: hu22E12.H4L3 (antibody, V domains shown)
VH: B2 VH with K12V, V20L, R37I, M47I, M69L, R71L
VL: B1 VL with A19V, I21L, L84V
notes: humanized 22E12

EC50 [2]: 1.25 nM
B14: hu22E12.H3L2 (antibody, V domains shown)
VH: B2 VH with K12V, R37I, R71L
VL: B1 VL
notes: humanized 22E12

ADCC EC50 (nM), NK-CD16a effector cells [1]: 0.144 nM
EC50 [2]: 1.32 nM
B15: hu22E12.H1L2 (antibody, V domains shown)
VH: B2 VH with R73T, F94Y, G97R
VL: B1 VL
notes: humanized 22E12

EC50 [2]: 1.16 nM
B16: hu22E12.H4L1 (antibody, V domains shown)
VH: B2 VH with K12V, V20L, R37I, M47I, M69L, R71L
VL: B1 VL with H93Y
notes: humanized 22E12

EC50 [3]: 0.439 nM
B17: hu35B4.H2L2 (antibody, V domains shown)
VH: EVQLLESGGGLVQPGGSLRLSCAASGFTLSSYALSWVRQAPGKGLEWVSYISNLGGSTFYPDTVKGRFTISRDNSKNTLYLQMNSLRAEDTAVYYCATHLYNYDAFASWGQGTLVTVSS
VL: DIQLTQSPSFLSASVGDRVTITCRASSSVNYIHWYQQKPGKAPKALIYATSNLASGVPSRFSGSGSGTEYTLTISSLQPEDFATYYCQQWNSNPLTFGQGTKLEIK
notes: humanized 35B4

EC50 [3]: 0.525 nM
B18: hu35B4.H1L1 (antibody, V domains shown)
VH: B17 VH with T98K
VL: B17 VL with A45L, Y70F
notes: humanized 35B4

EC50 [3]: 0.413 nM
B19: hu35B4.H2L3 (antibody, V domains shown)
VH: B17 VH
VL: B17 VL with A42S
notes: humanized 35B4

EC50 [3]: 0.319 nM
B20: hu35B4.H3L3 (antibody, V domains shown)
VH: B17 VH with S49A
VL: B17 VL with A42S
notes: humanized 35B4

EC50 [3]: 0.382 nM
B21: hu35B4.H1L3 (antibody, V domains shown)
VH: B17 VH with T98K
VL: B17 VL with A42S
notes: humanized 35B4

EC50 [3]: 0.297 nM
B22: hu35B4.H3L2 (antibody, V domains shown)
VH: B17 VH with S49A
VL: B17 VL
notes: humanized 35B4

EC50 [3]: 0.258 nM
B23: hu35B4.H3L1 (antibody, V domains shown)
VH: B17 VH with S49A
VL: B17 VL with A45L, Y70F
notes: humanized 35B4

EC50 [3]: 0.35 nM
B24: hu35B4.H3L4 (antibody, V domains shown)
VH: B17 VH with S49A
VL: B17 VL with I21M, A42S, L77V
notes: humanized 35B4

EC50 [3]: 0.367 nM
B25: hu35B4.H2L4 (antibody, V domains shown)
VH: B17 VH
VL: B17 VL with I21M, A42S, L77V
notes: humanized 35B4

EC50 [3]: 0.355 nM
B26: hu35B4.H2L1 (antibody, V domains shown)
VH: B17 VH
VL: B17 VL with A45L, Y70F
notes: humanized 35B4

EC50 [3]: 0.474 nM
B27: hu35B4.H1L4 (antibody, V domains shown)
VH: B17 VH with T98K
VL: B17 VL with I21M, A42S, L77V
notes: humanized 35B4

PBMC VS NUGC4 ADCC (EC50 nM) [4]: 0.458 nM
B28: ch33G12 (antibody, V domains shown)
VH: EVKLVESGGGLVQPGGSLKLSCAASGFTFSRYAMSWVRQTPEKRLEWVAYISIGGTTYYPDTIKGRFTISRDNAKNTLYLQMSSLKSEDTAMYYCTRHYYGHDVMDYWGQGTSVTVSS
VL: QIVLSQSPTILSASPGEKVTMTCRATSSVSYMHWFQQKPGSSPKPWIYATSNLASGVPARFSGSGSGTSYSLTISRVEAEDAATYYCQQWSRNPLTFGAGTKLELK

PBMC VS NUGC4 ADCC (EC50 nM) [4]: 8.69 nM
B29: ch60F11 (antibody, V domains shown)
VH: QVQLQQPGAELVKPGASVKLSCKASGYTFTSYWMHWVKQRPGQGLEWIGMIHPNSGSTNYNEKFKSKATLTVDKSSSTAYMQLSSLTSEDSAVYYCARMGLGNAMDYWGQGTSVTVSS
VL: DIVMTQSPSSLTVTAGEKVTLSCKSSQSLLNSGNQRNYLTWYQQKPGQPPKLLIYWASTRESGVPDRFTGSGSGTDFTLTISSVQAEDLAVYYCQNAYSYPLTFGAGTKLELK

PBMC VS NUGC4 ADCC (EC50 nM) [4]: 6.93 nM
B30: ch97A9 (antibody, V domains shown)
VH: QVQLQQSGPELVKPGASMKLSCKASGYSFTRNDINWVKQRPGQGLEWIGLSYPRDGTTQYNGKFKGKATLTVDTSSSTAYMELRSLTSEDSAVYFCARGYYGNSFAYWGQGTLVTVSA
VL: B29 VL with L21M, R36K, D76Y, Y93F, A97D, S99Y, Y100F, L102Y, A106G, L112I

PBMC VS NUGC4 ADCC (EC50 nM) [4]: 3.31 nM
B31: ch99H8 (antibody, V domains shown)
VH: QVQLQQSGPELVKPGASVKLSCKASGYSFTNFDINWVKQRPGQGLQWIGRLYPRDGTTTYNEKFKGKASLTVDTSSTTSYMDLHSLTSEDSAVYFCVRGNYGNSFAYWGQGTLVTVSA
VL: DIVMTQSPSSLTVTAREKVIMNCKSSQSLFNSGNQKNYLTWYQQKPGQSPKLLIYWASTRQSGVPDRFTGSGSGTDFTLTISTVQAEDLAVYFCQNGFSFPYTFGGGTKLEMN

From US20240270839A1 (ELPISCIENCE SUZHOU BIOPHARMA, published 2024)
